Data taken from patent US11352401.

Biological target: T1, HLA-A*01 (human)
T1 construct: MHC monomer made peptide-receptive by UV cleavage of a UV-sensitive ligand; also called peptide-receptive MHC class I monomer
Test: UV peptide-exchange ELISA; ++++ = yield >75%
Description: (§1) Candidate peptides for T cell based therapies according to the present invention were further tested for their MHC binding capacity (affinity). The individual peptide-MHC complexes were produced by UV-ligand exchange, where a UV-sensitive peptide is cleaved upon UV-irradiation, and exchanged with the peptide of interest as analyzed. Only peptide candidates that can effectively bind and stabilize the peptide-receptive MHC molecules prevent dissociation of the MHC complexes. To determine the yield of the exchange reaction, an ELISA was performed based on the detection of the light chain (β2m) of stabilized MHC complexes. The assay was performed as generally described in Rodenko et al. (Rodenko et al., 2006).
(§2) 96 well MAXISorp plates (NUNC) were coated over night with 2 ug/ml streptavidin in PBS at room temperature, washed 4× and blocked for 1 h at 37° C. in 2% BSA containing blocking buffer. […] Peptide-MHC monomers of the UV-exchange reaction were diluted 100-fold in blocking buffer. Samples were incubated for 1 h at 37° C., washed four times, incubated with 2 ug/ml HRP conjugated anti-β2m for 1h at 37° C., washed again and detected with TMB solution that is stopped with […]. Absorption was measured at 450 nm.

Peptide exchange yield, > 75%:
ETEEGIYWRY [ETEEGIYWRY (SEQ ID NO: 405)]
ASEITSKGASLY [ASEITSKGASLY (SEQ ID NO: 397)]
YLDPVQRDLY [YLDPVQRDLY (SEQ ID NO: 198)]
YVGKEHMFY [YVGKEHMFY (SEQ ID NO: 201)]
TSDSNLNKY [TSDSNLNKY (SEQ ID NO: 185)]
STDPWIQMAY [STDPWIQMAY (SEQ ID NO: 180)]
DSDESYMEKSLY [DSDESYMEKSLY (SEQ ID NO: 401)]
ETARKFLYY [ETARKFLYY (SEQ ID NO: 404)]
VTEESFDSKFY [VTEESFDSKFY (SEQ ID NO: 192)]
ATDIPCLLY [ATDIPCLLY (SEQ ID NO: 399)]
ASEASRLAHY [ASEASRLAHY (SEQ ID NO: 395)]
ASEAEMRLFY [ASEAEMRLFY (SEQ ID NO: 394)]
SSDEVNFLVY [SSDEVNFLVY (SEQ ID NO: 177)]
VTEFSLNTY [VTEFSLNTY (SEQ ID NO: 193)]
TLEDIATSHLY [TLEDIATSHLY (SEQ ID NO: 183)]
ETEQTKFWDY [ETEQTKFWDY (SEQ ID NO: 406)]
YSDEDVTKY [YSDEDVTKY (SEQ ID NO: 200)]
STAKSATWTY [STAKSATWTY (SEQ ID NO: 179)]
ASEFGNHYLY [ASEFGNHYLY (SEQ ID NO: 396)]
VSDSECLSRY [VSDSECLSRY (SEQ ID NO: 189)]

Biological target: T2, HLA-A*24 (human)
T2 construct: MHC monomer made peptide-receptive by UV cleavage of a UV-sensitive ligand; also called peptide-receptive MHC class I monomer
Test: UV peptide-exchange ELISA; ++++ = yield >75%
Description: as §1, §2

Peptide exchange yield, > 75%:
KFIISDWRF [KFIISDWRF (SEQ ID NO: 23)]
SYNGYVFYL [SYNGYVFYL (SEQ ID NO: 25)]
HYTYILEVF [HYTYILEVF (SEQ ID NO: 13)]
QFAAPLRGIYF [QFAAPLRGIYF (SEQ ID NO: 58)]
VWSDVTPLNF [VWSDVTPLNF (SEQ ID NO: 10)]
SYEKVINYL [SYEKVINYL (SEQ ID NO: 4)]
KYKDYFPVI [KYKDYFPVI (SEQ ID NO: 6)]
NYTLYPITF [NYTLYPITF (SEQ ID NO: 27)]
KYADYFLEV [KYADYFLEV (SEQ ID NO: 47)]
KYFVPPQLF [KYFVPPQLF (SEQ ID NO: 45)]
QYLPGWTVLF [QYLPGWTVLF (SEQ ID NO: 30)]
QWPWQASLQF [QWPWQASLQF (SEQ ID NO: 37)]
KYITNLEDL [KYITNLEDL (SEQ ID NO: 53)]
PFLPPAACFF [PFLPPAACFF (SEQ ID NO: 8)]
QYQNVLTLW [QYQNVLTLW (SEQ ID NO: 31)]
DYIGSVEKW [DYIGSVEKW (SEQ ID NO: 18)]
VWSNVTPLKF [VWSNVTPLKF (SEQ ID NO: 2)]
EFTTVLYNF [EFTTVLYNF (SEQ ID NO: 20)]
LYISEVRNI [LYISEVRNI (SEQ ID NO: 49)]
SLPDLTPTF [SLPDLTPTF (SEQ ID NO: 32)]
QYDPTPLTW [QYDPTPLTW (SEQ ID NO: 1)]
KYALLLQDL [KYALLLQDL (SEQ ID NO: 15)]
KYALLLQEL [KYALLLQEL (SEQ ID NO: 51)]
VFIDHPVHLKF [VFIDHPVHLKF (SEQ ID NO: 48)]
RWMDQRLVF [RWMDQRLVF (SEQ ID NO: 55)]
KYLEESVWL [KYLEESVWL (SEQ ID NO: 35)]
VYMIEPLEL [VYMIEPLEL (SEQ ID NO: 56)]
SYPELVKMVW [SYPELVKMVW (SEQ ID NO: 50)]
YPSIIQEF [YPSIIQEF (SEQ ID NO: 57)]
AYLSAVGTF [AYLSAVGTF (SEQ ID NO: 44)]
MQPRMFFLF [MQPRMFFLF (SEQ ID NO: 34)]
VYPLLSRLYW [VYPLLSRLYW (SEQ ID NO: 29)]
TQPGDWTLF [TQPGDWTLF (SEQ ID NO: 22)]
AFPVTSIFHTF [AFPVTSIFHTF (SEQ ID NO: 46)]
YYSKSVGFMQW [YYSKSVGFMQW (SEQ ID NO: 11)]
KTPTNYYLF [KTPTNYYLF (SEQ ID NO: 26)]
MYPDLSELLM [MYPDLSELLM (SEQ ID NO: 24)]
KYMKIFHKF [KYMKIFHKF (SEQ ID NO: 52)]
KYTNWKAFL [KYTNWKAFL (SEQ ID NO: 38)]
RYMKKDYLI [RYMKKDYLI (SEQ ID NO: 5)]
YYSIISHTL [YYSIISHTL (SEQ ID NO: 28)]
TLPNTIYRF [TLPNTIYRF (SEQ ID NO: 42)]
